Test results reported in publication PMC10012886.
pEC50, pKd: −log10 of the molar value. Several values for one entry are separate records, joined by “and”; a condition that tells them apart may be missing. Identical values can stand only once. One block for each substance: values may come before it.

What was measured:
[1] = biological target: Cadonilimab (hG1WT); test: BLI
[2] = biological target: fusion protein of human Fc with human PD-1 extracellular domain (PD1-hFc) (human) (UniProt Q15116); test: ELISA
[3] = biological target: fusion protein of mouse Fc with human PD-1 extracellular domain (PD1-mFc) (Homo sapiens (Human).) (UniProt Q15116); test: ELISA
[4] = biological target: human CTLA-4 on 293 T-CTLA4 cells (human) (UniProt P16410); test: flow cytometry on cells
[5] = biological target: human PD-1 on 293 T-PD1 cells (human) (UniProt Q15116); test: flow cytometry on cells
[6] = biological target: human PD-1 and CTLA-4 mixture (mol/mol: 1/1) immobilized on AMC sensors (human); test: BLI
[7] = biological target: FcγRIIIa_V158 (FcγRIIIa 158 V alleles); test: BLI
[8] = biological target: FcγRIa (UniProt P12314); test: BLI
[9] = biological target: FcγRIIIa_F158 (FcγRIIIa 158 F alleles) (UniProt P08637); test: BLI
UniProt P08637, sequence (P08637 17-254): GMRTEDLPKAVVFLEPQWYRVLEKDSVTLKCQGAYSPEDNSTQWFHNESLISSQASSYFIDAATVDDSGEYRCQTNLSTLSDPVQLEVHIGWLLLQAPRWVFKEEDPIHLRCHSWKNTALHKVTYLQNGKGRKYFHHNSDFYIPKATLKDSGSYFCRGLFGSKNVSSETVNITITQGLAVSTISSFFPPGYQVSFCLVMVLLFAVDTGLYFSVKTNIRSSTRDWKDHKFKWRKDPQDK

UniProt P12314, sequence (P12314 16-374): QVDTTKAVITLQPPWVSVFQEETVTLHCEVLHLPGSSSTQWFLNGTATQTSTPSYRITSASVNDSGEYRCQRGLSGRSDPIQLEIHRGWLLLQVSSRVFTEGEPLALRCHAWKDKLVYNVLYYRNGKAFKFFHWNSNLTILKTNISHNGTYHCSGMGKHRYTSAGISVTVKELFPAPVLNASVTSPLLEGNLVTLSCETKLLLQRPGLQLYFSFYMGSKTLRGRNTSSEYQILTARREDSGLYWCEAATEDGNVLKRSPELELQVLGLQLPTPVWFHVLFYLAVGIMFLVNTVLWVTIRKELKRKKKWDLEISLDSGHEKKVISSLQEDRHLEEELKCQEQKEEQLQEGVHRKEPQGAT
UniProt P16410, sequence (P16410 36-223): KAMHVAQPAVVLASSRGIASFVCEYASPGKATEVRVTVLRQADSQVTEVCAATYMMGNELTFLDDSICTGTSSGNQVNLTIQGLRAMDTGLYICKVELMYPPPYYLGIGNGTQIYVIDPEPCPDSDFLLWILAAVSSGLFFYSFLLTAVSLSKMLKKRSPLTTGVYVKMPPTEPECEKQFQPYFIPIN

pKd [1]: 8.60 | koff [1]: 0.00517 s⁻¹ | kon [1]: 2.05e+06 M⁻¹ s⁻¹
Substance: C1q (complex)

pEC50 [2]: 9.10 and 8.84 | pEC50 [3]: 10.29 | pEC50 [4]: 8.41 and 8.51 | pEC50 [5]: 8.74 and 8.58 | fold higher binding avidity than with low-density PD-1 [6]: 10 fold
Substance: Cadonilimab (bispecific antibody)

pKd [7]: 6.75 | koff [7]: 0.0214 s⁻¹ | kon [7]: 121000 M⁻¹ s⁻¹ | pKd [8]: 8.23 | koff [8]: 0.00181 s⁻¹ | kon [8]: 306000 M⁻¹ s⁻¹ | pKd [9]: 6.66 | koff [9]: 0.0247 s⁻¹ | kon [9]: 112000 M⁻¹ s⁻¹
Substance: Cadonilimab (hG1WT) (bispecific antibody)
